# Patent US20250042994A1 (HAINAN SIMCERE ZAIMING PHARMACEUTICAL, published 2025)
# T1: Human CD19-his protein (human, UniProt P15391 20-291)
# T1 construct: bought protein; also called human CD19 protein; recombinant human CD19-His; not shown: His tag
# T1 sequence (looked up): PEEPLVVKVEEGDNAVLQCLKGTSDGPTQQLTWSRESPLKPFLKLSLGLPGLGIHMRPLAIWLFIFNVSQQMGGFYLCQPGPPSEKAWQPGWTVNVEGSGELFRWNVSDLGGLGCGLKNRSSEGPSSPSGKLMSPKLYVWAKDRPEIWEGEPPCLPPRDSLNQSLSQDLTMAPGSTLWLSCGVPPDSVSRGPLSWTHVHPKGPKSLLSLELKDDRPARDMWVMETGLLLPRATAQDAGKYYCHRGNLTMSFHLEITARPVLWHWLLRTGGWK
# T2: murine CD19 protein (murine, UniProt P25918 17-287, limits assumed)
# T2 construct: bought protein; also called commercial murine CD19
# T2 sequence (looked up): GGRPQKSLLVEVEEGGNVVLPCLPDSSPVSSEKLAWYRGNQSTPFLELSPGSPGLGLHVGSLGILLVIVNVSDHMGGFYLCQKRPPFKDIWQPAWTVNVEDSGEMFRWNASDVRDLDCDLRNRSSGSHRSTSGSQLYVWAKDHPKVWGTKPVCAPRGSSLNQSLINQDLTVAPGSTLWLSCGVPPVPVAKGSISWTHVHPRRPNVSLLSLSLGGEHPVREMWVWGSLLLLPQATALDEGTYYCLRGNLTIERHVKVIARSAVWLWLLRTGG
# T3: human CD19 exon1-3-his protein (human, UniProt P15391 20-186, limits assumed)
# T3 construct: made in HEK293E cells; also called membrane-distal end; not shown: His tag
# T3 sequence (looked up): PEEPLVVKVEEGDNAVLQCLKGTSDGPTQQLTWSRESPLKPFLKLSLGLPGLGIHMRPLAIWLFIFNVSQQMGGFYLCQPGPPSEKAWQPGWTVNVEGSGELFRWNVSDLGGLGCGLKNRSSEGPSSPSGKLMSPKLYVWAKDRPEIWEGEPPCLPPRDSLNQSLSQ
# Key:
# Human CD19-his protein [1] = target: T1, Human CD19-his protein; test: ELISA, antibody at 0.001 nM
# Human CD19-his protein [2] = target: T1, Human CD19-his protein; test: ELISA, antibody at 1.00 nM
# Human CD19-his protein [3] = target: T1, Human CD19-his protein; test: ELISA, antibody at 0.10 nM
# Human CD19-his protein [4] = target: T1, Human CD19-his protein; test: ELISA on coated human CD19-His
# Experimental: Human CD19-his protein (purchased from ACROBiosystems, catalog number: CD9-H52H2) was diluted with PBS to a final concentration of 4 μg/mL, and then added to a 96-well ELISA plate at 100 μl/well. The plate was sealed with a plastic film and incubated overnight at 4° C., the plate was washed 2 times with PBS the next day, and then a blocking solution [PBS+2% (w/w) BSA] was added for blocking at room temperature for 2 h. The blocking solution was poured off, and 100 nM gradiently diluted CD19 chimeric antibody or control antibody was added at 50 μl/well. After incubation at 37° C. for 2 h, the plate was washed 3 times with PBS. […] TMB substrate was added at 50 μl/well, and incubated at room temperature for 10 min, and then a stop solution (1.0 N HCl) was added at 50 μl/well. The OD450 nm values were read by an ELISA microplate reader (Multimode Plate Reader, EnSight, purchased from Perkin Elmer).
# Human CD19-his protein [5] = target: T1, Human CD19-his protein; test: ELISA, antibody at 0.01 nM
# Human CD19-his protein [6] = target: T1, Human CD19-his protein; test: ELISA, antibody at 0.0001 nM
# Human CD19-his protein [7] = target: T1, Human CD19-his protein; test: ELISA, antibody at 100 nM
# murine CD19 protein = target: T2, murine CD19 protein; test: ELISA, coated murine CD19
# Procedure, shortened: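 Plates coated overnight at 4° C with recombinant murine or monkey CD19 and blocked with 2% BSA. Chimeric antibodies, serially diluted from 100 nM, bound for 2 h at 37° C. TMB development for 10 min with OD450 read-out.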
# Human CD19-his protein [8] = target: T1, Human CD19-his protein; test: ELISA, antibody at 10 nM
# [9] = target: T3, human CD19 exon1-3-his protein; test: ELISA, coated at 2 ug/mL
Binder,OD450 (Human CD19-his protein [1]),OD450 (Human CD19-his protein [2]),OD450 (Human CD19-his protein [3]),EC50 (read off the curve) (Human CD19-his protein [4]),OD450 (Human CD19-his protein [5]),OD450 (Human CD19-his protein [6]),OD450 (Human CD19-his protein [7]),binding result (murine CD19 protein),OD450 (Human CD19-his protein [8]),binding result [9]
"F4.191.1 (antibody, human IgG1, V domains shown, human-murine chimeric antibody, human IgG1) VH: QVQLQQPGAELVRPGASVKLSCKASGYTFTSYWINWVKQRPGQGLEWIGNIHPSDSYTNYNQKFKDKATLTVDKSSSTAYMQFSSPTSEDSAVYYCTREDYYYGSNYDAMDYWGQGTSVTVSS VL: DIVMTQSHKFMSTSVGDRVNITCKASQDVGSSVAWYQQKPGQSPKLLIYWASTRHAGVPDRFTGSGSGADFTLTISNVQSEDLADYFCQQYSTYPLTFGAGTKLELK",0.06,1.42,0.57,~0.2 nM,0.13,0.05,1.69,no binding,1.43,no binding
"F5.7.1 (antibody, human IgG1, V domains shown, human-murine chimeric antibody, human IgG1) VH: QVTLKESGPGILQPSQTLSLTCSFSGFSLTTFGMGVGWIRQPSGKGLEWLTHIWWDDDKYYNPALKSRLTISKDTSKNQVFLRIANVDTADTATYYCARVITTGVPYFDYWGQGTTLTVSS VL: ENVLTQSPAIMSASPGEKVTMTCRASSSVSSSYLYWYQQKSGASPKLWISSTSNLASGVPARFSGSGSGTSYSLTINSVEAEDAATYYCQQYSGYPWTFGGGTKLEIK",0.08,1.62,1.09,~0.07 nM,0.25,0.06,1.91,no binding,1.78,no binding
"F4.145.9 (antibody, human IgG1, V domains shown, human-murine chimeric antibody, human IgG1) VH: EVQLVESGGGLVKPGGSLKLSCAAAGFAFSSYDMSWVRQIPEKRLEWVAYISAGGGNTYFLDTVKGRFTISRDHAKNTLSLQMSSLKSEDTAMYFCVRHGDYYRYFYAMDYWGQGSSVTVSS VL: DIVMTQSHKFMSTSVGDRVSITCKASQDVGTAVAWSQQKPGQSPKLLIYWASTRHTGVPDRFTGSGSGTDFTLTISNVQSEDLADYFCQQFVTYPYTFGGGTKLEIK",0.08,1.79,1.11,~0.06 nM,0.27,0.06,1.84,no binding,1.73,no binding
"F5.3.6 (antibody, human IgG1, V domains shown, human-murine chimeric antibody, human IgG1) VH: DVQLQESGPGLVKPSQSQSLTCSVTGYSITSGYYWNWIRQFPGNKLEWMGYISYDGSNNYNPSLKNRISITRDTSKNQFFLKLNSVTTEDTVTYYCARAPLTGDRYWYFDVWGTGTTVTVSS VL: DIVLTQSPASLAVSLGQRATISCRASQSVSTSSYSYMHWYQQKPGQTPKLLIKYASNLKSGVPARFSGSGSGTDFTLNIHPVEEEDTATYYCQHSWEIPPTFGGGTKLEIK",0.06,1.11,0.33,~0.4 nM,0.09,0.05,1.49,no binding,1.56,no binding
"F5.8.6 (antibody, human IgG1, V domains shown, human-murine chimeric antibody, human IgG1) VH: QVQLHQPGAELVMPGASVTLSCKASGYTFTSYWMHWVKQRPGQGLEWIGEIDPSDSYTTYDQKFKGKATLTVDKFSSTAYMQFSSLTSEDSAVYYCARLTGNHLDYWGQGTTLTVSS VL: DIVMTQSHKFMSSSVGDRVSITCKASQDVSPAVAWYQQKPGQSPKLLIYSTSYRNTGVPDRFTGSGSGTDFTFTISSVQAEDLAVYYCQQHYSIPLTFGAGTKLELK",0.06,0.69,0.22,~0.4 nM,0.08,0.05,0.96,no binding,0.93,no binding
"F4.152.7 (antibody, human IgG1, V domains shown, human-murine chimeric antibody, human IgG1) VH: QVQLQQPGAELVKPGASVKLSCKASGYTFTSYWMHWVKQRPGQGLEWIGEIDPSDSYTNYNQKFKGKATLTADKSSSTAYMQLSGLTSEDSAVYHCARGGDYDGYYVMDYWGQGTSVTVSS VL: EIVLTQSPTTMAASPGEKITITCSASSSISSNYLHWYQQKPGFSPKLLIYRTSNLASGVPARFSGSGSGTSYSLTIGTMEADDVATYYCQQGSYIPRIFTFGSGTKLEIK",0.07,2.12,1.28,~0.06 nM,0.26,0.05,2.07,no binding,2.01,no binding

# More lines, now with the values ahead:
OD450 (Human CD19-his protein [1]),OD450 (Human CD19-his protein [2]),OD450 (Human CD19-his protein [3]),EC50 (read off the curve) (Human CD19-his protein [4]),OD450 (Human CD19-his protein [5]),OD450 (Human CD19-his protein [6]),OD450 (Human CD19-his protein [7]),binding result (murine CD19 protein),OD450 (Human CD19-his protein [8]),binding result [9],Binder
0.08,1.12,1.06,~0.03 nM,0.24,0.06,1.35,no binding,1.27,no binding,"F4.15.9 (antibody, human IgG1, V domains shown, human-murine chimeric antibody, human IgG1) VH: QVQLQQSGPELVKPGASVKISCKASGYAFSSSWMNWLKQRPGQGLEWIGRIYPGDGDTNYNGKFKGKATLTADESSSTAYMQLSSLTSVDSAVYFCARGITTIITIAWFASWGQGTLVTVSA VL: QIVLSQSPTILSASPGEKVTMTCRASSSVSYMHWYQQKPGSSPKPWIYATSNLASGVPPRFSGSGSGTSYSLTISRVGAEDAATYYCQQWSSDPWTFGGGTKLEIK"
0.06,1.63,0.76,~0.2 nM,0.12,0.05,2.02,no binding,1.92,no binding,"F4.180.1 (antibody, human IgG1, V domains shown, human-murine chimeric antibody, human IgG1) VH: EVQLQQSAPELVKPGASVKMSCKTSGYTFTENIIHWVKQTHGKSLEWIGGINPDNGGTSYHQKFKGRTTLTIDKSSSTAYMELRSLTSDDSAVFFCARQAPLYWYFDIWGAGTTVTVSS VL: DIVLTQSPASLAVSLGQRATISCRASESVDSYGNSLMHWFQQKPGQPPRLLIYRASNLESGIPARFSGSGSRTDFTLTITPVEADDVATYYCQQSNEDPWTFGGGTKLEIK"
0.09,1.68,1.07,~0.06 nM,0.23,0.06,1.84,no binding,1.54,no binding,"F4.125.12 (antibody, human IgG1, V domains shown, human-murine chimeric antibody, human IgG1) VH: EVKLVESGGGLVQPGGSLKLSCAASGFTFSTYTMSWVRQTPEKRLEWVAFISSGGGHINYPDTVKGRFTISRDNAKNTLYLQMSSLKSEDTAMYYCARHSYWFFDVWGAGTTVTVSS VL: DVQITQSPSYLAASPGETITINCRASKNIDTYLAWYQEKPGKTNKLLIYSGSTLQSGIPSRFRGGGSGTDFTLTICSLEPEDFAMYYCQQHNEYPLTFGAGTKLELK"
0.11,1.55,1.05,~0.06 nM,0.29,0.08,1.56,no binding,1.76,no binding,"F5.2.9 (antibody, human IgG1, V domains shown, human-murine chimeric antibody, human IgG1) VH: QVTLKESGPGILQPSQTLSLTCSFSGFSLSTFGLGVGWVRQPSGKGLEWLAHIWWDDDKYYNPALKSRVTVSKETSKNQVFFKIANVDTADSATYYCARLSRGLRRDVVYAMDHWGQGTSVTVSS VL: DIQMTQTTSSLSASLGDRVTISCRASQDISNYLNWYQQKPDGSVKLLISYVSRLQSGVPSRFRGSGSGTDYSLTISNLDQEDIATYFCQQGIAFPYTFGGGTKLDIK"
